Assay results from patent US20230340152A1 (published 2023).

Tests used:
[1] = biological target: T1, CD73 construct with chicken N- and C-terminal domain sequence with human V144 and N185 knocked in (chicken; human); assay: SPR (ProteOn), CD73 variant immobilized
T1 chain: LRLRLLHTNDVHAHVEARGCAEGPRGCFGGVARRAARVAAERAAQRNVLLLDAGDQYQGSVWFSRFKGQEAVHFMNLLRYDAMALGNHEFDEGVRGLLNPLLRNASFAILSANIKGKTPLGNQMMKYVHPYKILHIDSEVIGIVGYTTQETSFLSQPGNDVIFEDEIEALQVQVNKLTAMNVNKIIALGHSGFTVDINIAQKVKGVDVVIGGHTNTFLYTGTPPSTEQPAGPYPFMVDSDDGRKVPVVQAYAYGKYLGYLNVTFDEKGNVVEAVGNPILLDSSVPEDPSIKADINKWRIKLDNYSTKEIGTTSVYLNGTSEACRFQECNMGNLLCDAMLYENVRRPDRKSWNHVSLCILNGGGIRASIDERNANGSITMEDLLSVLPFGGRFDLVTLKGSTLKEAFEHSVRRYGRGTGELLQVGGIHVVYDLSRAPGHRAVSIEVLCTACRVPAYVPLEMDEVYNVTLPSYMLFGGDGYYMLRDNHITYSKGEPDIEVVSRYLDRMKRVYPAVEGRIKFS
Experimental: Binding of MEDI9447 to wild-type and mutant CD73 proteins was measured by surface plasmon resonance (SPR) using a ProteOn instrument (BioRad). CD73 crude cell supernatant protein samples were diluted to 3 µg/ml in PBS, 0.005% Tween-20, pH 7.4 (BioRad) and immobilized to ~400 RU on a HTG tris-NTA sensor chip (BioRad) pre-activated with 10 mM NiSO₄, 10 mM MES, pH 6.0 (BioRad). An equivalently diluted crude cell supernatant sample from non-transfected cells was included as a reference channel control. Sensorgrams were recorded by flowing two-fold dilutions of MEDI9447 prepared in PBS, 0.005% Tween-20, pH 7.4, ranging from 5 nM to 0.31 nM. […] Antibody binding was measured at a flow rate of 100 µL/min with a 3 min association phase and 20 min dissociation phase. The sensor chip surface was regenerated between each run by an 800 s injection of 300 mM EDTA, pH 8.5 (BioRad) at a flow rate of 30 µL/min. Binding kinetics were analyzed using the ProteOn data analysis software. Double referencing was performed and, unless noted otherwise, a 1:1 Langmuir binding model was utilized to fit the data. Some CD73 variants containing mutations within the amino acid region 171-188 fit poorly to a 1:1 model (i.e., Chi² values >10% of Rmax). Where noted, these variants were fit with a heterogenous antigen (2:1) model. […]

[2] = biological target: T2, Murine CD73 on cells (4T1, Jurkat mCD73 knock-in) (murine, UniProt Q61503 29-551); assay: flow cytometry, Jurkat (mCD73 knock-in) / Jurkat
T2 construct: whole, on cells; also called 4T1 (murine)
T2 sequence (looked up): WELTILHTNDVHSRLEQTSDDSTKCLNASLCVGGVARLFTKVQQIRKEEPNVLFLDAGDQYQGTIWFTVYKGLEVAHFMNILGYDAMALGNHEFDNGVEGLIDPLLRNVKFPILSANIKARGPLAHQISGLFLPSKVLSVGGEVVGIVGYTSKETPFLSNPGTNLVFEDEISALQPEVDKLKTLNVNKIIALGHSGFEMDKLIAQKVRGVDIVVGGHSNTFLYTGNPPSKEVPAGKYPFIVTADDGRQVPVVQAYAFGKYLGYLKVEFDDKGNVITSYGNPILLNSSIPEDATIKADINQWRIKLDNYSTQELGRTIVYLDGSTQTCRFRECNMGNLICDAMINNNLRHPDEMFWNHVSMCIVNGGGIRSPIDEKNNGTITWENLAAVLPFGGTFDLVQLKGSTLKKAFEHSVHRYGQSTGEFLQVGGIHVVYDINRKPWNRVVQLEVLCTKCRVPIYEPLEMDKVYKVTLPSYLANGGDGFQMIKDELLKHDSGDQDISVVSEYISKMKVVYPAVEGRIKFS

[3] = biological target: T3, Human CD73 V144K+N185G, His-tagged (human, UniProt P21589 27-549); assay: SPR (ProteOn), CD73 variant immobilized on HTG chip
T3 chain: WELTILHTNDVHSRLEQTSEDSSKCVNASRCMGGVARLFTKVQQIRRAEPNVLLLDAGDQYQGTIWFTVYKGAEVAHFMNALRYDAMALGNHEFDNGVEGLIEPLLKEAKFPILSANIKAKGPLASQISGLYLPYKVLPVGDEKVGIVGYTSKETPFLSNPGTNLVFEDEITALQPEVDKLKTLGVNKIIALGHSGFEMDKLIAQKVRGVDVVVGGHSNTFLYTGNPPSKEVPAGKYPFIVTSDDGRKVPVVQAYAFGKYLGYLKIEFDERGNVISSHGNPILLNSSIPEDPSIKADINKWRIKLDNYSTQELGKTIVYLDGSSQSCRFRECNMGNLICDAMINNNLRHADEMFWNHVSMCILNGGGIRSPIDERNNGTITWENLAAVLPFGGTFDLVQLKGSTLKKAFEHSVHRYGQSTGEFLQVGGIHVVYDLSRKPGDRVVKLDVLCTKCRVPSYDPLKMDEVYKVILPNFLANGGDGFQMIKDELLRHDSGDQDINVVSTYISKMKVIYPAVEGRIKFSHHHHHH
Experimental: (§1) Binding of MEDI9447 to wild-type and mutant CD73 proteins was measured by surface plasmon resonance (SPR) using a ProteOn instrument (BioRad). CD73 crude cell supernatant protein samples were diluted to 3 µg/ml in PBS, 0.005% Tween-20, pH 7.4 (BioRad) and immobilized to ~400 RU on a HTG tris-NTA sensor chip (BioRad) pre-activated with 10 mM NiSO₄, 10 mM MES, pH 6.0 (BioRad). An equivalently diluted crude cell supernatant sample from non-transfected cells was included as a reference channel control. Sensorgrams were recorded by flowing two-fold dilutions of MEDI9447 prepared in PBS, 0.005% Tween-20, pH 7.4, ranging from 5 nM to 0.31 nM. […] Antibody binding was measured at a flow rate of 100 µL/min with a 3 min association phase and 20 min dissociation phase. The sensor chip surface was regenerated between each run by an 800 s injection of 300 mM EDTA, pH 8.5 (BioRad) at a flow rate of 30 µL/min. Binding kinetics were analyzed using the ProteOn data analysis software. Double referencing was performed and, unless noted otherwise, a 1:1 Langmuir binding model was utilized to fit the data. Some CD73 variants containing mutations within the amino acid region 171-188 fit poorly to a 1:1 model (i.e., Chi² values >10% of Rmax). Where noted, these variants were fit with a heterogenous antigen (2:1) model. […] Due to the assay format (antigen immobilized) and the dimeric state of CD73, KD values may be exaggerated due to avidity effects. However, it is not anticipated that this impacts ranking of MEDI9447 binding to the different CD73 variants.

[4] = biological target: T4, Human CD73 K180A+N185G, His-tagged (human, UniProt P21589 27-549); assay: as above
T4 chain: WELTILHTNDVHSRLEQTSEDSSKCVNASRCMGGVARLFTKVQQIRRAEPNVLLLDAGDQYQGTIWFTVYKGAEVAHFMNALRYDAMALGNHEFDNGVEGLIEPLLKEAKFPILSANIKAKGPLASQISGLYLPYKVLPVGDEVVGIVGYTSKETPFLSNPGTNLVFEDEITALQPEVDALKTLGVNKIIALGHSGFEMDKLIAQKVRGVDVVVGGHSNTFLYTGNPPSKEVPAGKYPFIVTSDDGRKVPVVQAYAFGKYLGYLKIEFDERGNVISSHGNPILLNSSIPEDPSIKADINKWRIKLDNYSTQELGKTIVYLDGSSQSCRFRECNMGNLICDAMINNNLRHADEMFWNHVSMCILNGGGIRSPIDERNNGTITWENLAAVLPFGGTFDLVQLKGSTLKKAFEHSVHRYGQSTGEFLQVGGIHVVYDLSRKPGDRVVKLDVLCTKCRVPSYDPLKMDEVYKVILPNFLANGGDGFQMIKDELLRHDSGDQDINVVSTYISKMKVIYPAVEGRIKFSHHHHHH
Experimental: as §1

B1: MEDI9447 (antibody, human IgG1, lambda, V domains shown)
VH: EVQLLESGGGLVQPGGSLRLSCAASGFTFSSYAYSWVRQAPGKGLEWVSAISGSGGRTYYADSVKGRFTISRDNSKNTLYLQMNSLRAEDTAVYYCARLGYGRVDEWGRGTLVTVSS
VL: QSVLTQPPSASGTPGQRVTISCSGSLSNIGRNPVNWYQQLPGTAPKLLIYLDNLRLSGVPDRFSGSKSGTSASLAISGLQSEDEADYYCATWDDSHPGWTFGGGTKLTVLG
notes: Human IgG1-TM (L234F, L235E, P331S), lambda light chain; also called clone 10.3 antibody; 73combo3
Kd [1]: 79 pM
Mean Fluorescence Intensity Ratio (MFIR) [2]: 57.1
binding result [3]: no binding
binding result [4]: no binding
